Measured values from patent publication US20210284740A1.

Tests used:
[1] = target: peripheral lymph node addressin (PNAd) expressed on CHO cells; test: cell-based ELISA on fixed CHO-PNAd cells, antibody titrated 1 ng/ml to 300 ug/ml, fitted curve
[2] = target: peripheral lymph node addressin (PNAd) expressed on CHO cells; test: cell-based ELISA on fixed CHO-PNAd cells, HRP-conjugated secondary antibody, TMB, OD450
[3] = target: peripheral lymph node addressin (PNAd) expressed on CHO cells; test: cell-based ELISA on fixed CHO-PNAd cells; compared with the reference MECA79

Kd [1] [nM] | EC50 (read off the curve) [2] [µg/mL] | binding affinity higher than MECA79 (percent) [3] [%] | Molecule
1.41 | 5 |  | MECA79 monoclonal antibody
0.97 | 4 | 30 | MHA112 monoclonal antibody (mAb) (antibody, mouse IgM, V domains shown) VH: QVQLKESGPGLVAPSQSLSITCTVSGFSLTSYGVDWVRQPPGKGLEWLGVIWGGGSTNYNSALMSRLSISKDNSKSQVFLKMNSLQTDDTAMYYCAKHSKGGYFDVWGTGTTVTVSS VL: EIVLTQSPAITAASLGQKVTITCSASSSVSYMHWYQQKSGTSPKPWIYEISKLASGVPARFSGSGSGTSYSLTISSMEAEDAAIYYCQQWNYPLITFGAGTKLELK
